Six molecules from patent US20110123523A1 (MERRIMACK PHARMACEUTICALS, published 2011) can be followed below.

The target of assay [1] is T1, ErbB3 receptor, wild type full length, on cells (MALME-3M, ADRr/AdrR, CHO K1 transfectants) (human, UniProt P21860 20-1342).
T1 construct: whole, on cells; also called HER3
As to the kind of experiment: flow cytometry on MALME-3M cells; Fab at about 500 nM; goat anti-human Alexa 647 secondary antibody. For orientation: In flow cytometry, cells or beads pass a laser one at a time.

Assay [2] has as its target T1, ErbB3 receptor, wild type full length, …. Kind of assay: flow cytometry, biotinylated heregulin EGF + streptavidin-PE; cells MALME3 according to the sheet's title and legend paragraph 42 (Example 10 names ADRr cells).
Procedure: Cells were then washed twice with 500 μl BD stain buffer and incubated with 100 μl of a 1:200 dilution of streptavidin-PE (PE=phycoerythrin) (Invitrogen) in BD stain buffer for 45 minutes. Finally, cells were washed twice, resuspended in 300 μl of BD stain buffer and analyzed in a FACScalibur flow cytometer.
The target is the same in assay [3]. Kind of assay: flow cytometry on MALME-3M cells (ErbB1 negative, ErbB3 positive), biotinylated BTC + streptavidin-PE.
Procedure: (§1) Cells were then washed twice with 500 μl BD stain buffer and incubated with 100 μl of a 1:200 dilution of streptavidin-PE (PE=phycoerythrin) (Invitrogen) in BD stain buffer for 45 minutes. Finally, cells were washed twice, resuspended in 300 μl of BD stain buffer and analyzed in a FACScalibur flow cytometer. […] To assess background staining from the streptavidin-PE conjugate, cells were incubated with 100 μl of a 1:200 dilution of streptavidin-PE only for 45 minutes.
The target of assay [4] is T2, EGFR (ErbB1) on ADRr cells (human, UniProt P00533 25-1210).
T2 construct: whole, on cells
Kind of assay: flow cytometry on ADRr cells, biotinylated BTC + streptavidin-PE; BTC concentration not printed on the sheet (legend paragraph 39 names 10 nM).
Procedure: as §1

Assay [5] concerns the target T3, ErbB3 as used in the surface plasmon resonance (Flexchip) and KinExA assays (human, UniProt P21860 20-643, limits assumed). Kind of assay: surface plasmon resonance (Flexchip assay); Flexchip SPR. (In general: In SPR one partner is held on a chip, and binding of the other changes the refractive index at the surface.)
In assay [6] the target is T1, ErbB3 receptor, wild type full length, …. Kind of assay: cell binding assay, flow cytometry on MALME-3M cells, one-site binding fit.
Procedure: (§2) The concentrations of the diluted antibody ranged from 200 nM to 0.4 nM.
(§3) Aliquoted cells in the 96-well plate were incubated with the protein dilutions for 30 minutes at room temperature on a platform shaker and washed 3 times with 300 μl BD stain buffer. […] Finally, cells were washed twice, pelleted and resuspended in 250 μl BD stain buffer+0.5 μg/ml propidium iodide. Analysis of 10,000 cells was done in a FACScalibur flow cytometer using the FL4 channel. MFI values and the corresponding concentrations of the anti-ErbB3-antibodies were plotted on the y-axis and x-axis, respectively. The KD of the molecule was determined by GraphPad Prism using the one-site binding model for a non-linear regression curve.
(§4) The KD value was calculated based on the formula Y=Bmax*X/KD+X (Bmax=fluorescence at saturation. X=antibody concentration. Y=degree of binding).
The target is the same in assay [7]. Kind of assay: flow cytometry on MALME-3M cells, Alexa 647 goat anti-human IgG, one-site binding fit.
Procedure: as §2, §3, §4
Assay [8] shares this target. As to the kind of experiment: cell-based or functional assay.
Assay [9] addresses T3, ErbB3 as used in the surface plasmon …. As to the kind of experiment: Kinetic Exclusion Assay (KinExA); KinExA.
For assay [10] the target is unchanged. As to the kind of experiment: Kinetic Exclusion Assay (KinExA); KinExA, not Flexchip SPR.
The target is the same in assay [11]. As to the kind of experiment: surface plasmon resonance (Flexchip assay); Flexchip SPR, not KinExA.
Assay [12] has as its target T1, ErbB3 receptor, wild type full length, …. As to the kind of experiment: flow cytometry on MALME-3M cells, Alexa 647 goat anti-human IgG, one-site binding fit. The source holds these as a separate data set.
Procedure: as §2, §3, §4
Assay [13] has as its target T4, full-length ErbB3 D93A mutant on CHO K1 cells (human, UniProt P21860 20-1342).
T4 construct: whole, on cells
Kind of assay: FACS on CHO K1 cells stably expressing full-length ErbB3 D93A; Ab #6 directly labelled with Alexa 488 (FL1).
Source text: (§5) CHO K1 cells expressing wild type full-length ErbB3 served as a positive control.

Assay [14] concerns the target T5, full-length ErbB3 L102A mutant on CHO K1 cells (human, UniProt P21860 20-1342).
T5 construct: whole, on cells; Numbering as for m15
Kind of assay: FACS on CHO K1 cells stably expressing full-length ErbB3 L102A; Ab #6 directly labelled with Alexa 488 (FL1).
Source text: as §5

The target of assay [15] is T6, full-length ErbB3 Y104A mutant on CHO K1 cells (human, UniProt P21860 20-1342).
T6 construct: whole, on cells; Numbering as for m15
As to the kind of experiment: FACS on CHO K1 cells stably expressing full-length ErbB3 Y104A; Ab #6 directly labelled with Alexa 488 (FL1).
Source text: as §5

In assay [16] the target is recombinant human EGFR (coated on ELISA plate) (human, UniProt P00533 25-645, limits assumed). Kind of assay: ELISA on plate-coated protein, HRP anti-human IgG, chemiluminescence. In general terms: ELISA stands for enzyme-linked immunosorbent assay.
Procedure: (§6) Specifically, 96-well Nunc Maxisorb plates were coated with 50 μl of 5 μg/ml protein (recombinant human ErbB3, recombinant human EGFR or unrelated protein (BSA)) and incubated overnight at room temperature. The next morning, plates were washed 3 times with 1000 μl/well of PBST (0.05% Tween-20) in the BioTek plate washer. The wells were blocked for 1 hr at room temperature with 2% BSA in PBS. The plates were washed 3 times with 1000 μl/well of PBST (0.05% Tween-20) in the BioTek plate washer. […] All samples were run in duplicate and incubated for 2 hrs at 4° C. on a plate shaker. The plates were washed plates 3 times with 1000 μl/well of PBST (0.05% Tween-20) in the BioTek plate washer. 50 μl of human IgG detection antibody (HRP conjugated (Bethyl Inc; 1:75000 dilution in 2% BSA, PBST)) was added and the plates were incubated for 1 hr at room temperature. The plates were washed plate 3 times with 1000 μl/well of PBST (0.05% Tween-20) in the BioTek plate washer. 50 μL of Supersignal Pico ELISA substrate was added and the plate was read on the Fusion plate reader. The data was analyzed using the EXCEL program. Duplicate samples were averaged and the error bars represent the standard deviation between the two replicates.
For assay [17], the target named is bovine serum albumin (BSA), unrelated protein control (bovine, UniProt P02769 25-607). Described as above.
bovine serum albumin (BSA), unrelated protein control, sequence (P02769 25-607 limits assumed): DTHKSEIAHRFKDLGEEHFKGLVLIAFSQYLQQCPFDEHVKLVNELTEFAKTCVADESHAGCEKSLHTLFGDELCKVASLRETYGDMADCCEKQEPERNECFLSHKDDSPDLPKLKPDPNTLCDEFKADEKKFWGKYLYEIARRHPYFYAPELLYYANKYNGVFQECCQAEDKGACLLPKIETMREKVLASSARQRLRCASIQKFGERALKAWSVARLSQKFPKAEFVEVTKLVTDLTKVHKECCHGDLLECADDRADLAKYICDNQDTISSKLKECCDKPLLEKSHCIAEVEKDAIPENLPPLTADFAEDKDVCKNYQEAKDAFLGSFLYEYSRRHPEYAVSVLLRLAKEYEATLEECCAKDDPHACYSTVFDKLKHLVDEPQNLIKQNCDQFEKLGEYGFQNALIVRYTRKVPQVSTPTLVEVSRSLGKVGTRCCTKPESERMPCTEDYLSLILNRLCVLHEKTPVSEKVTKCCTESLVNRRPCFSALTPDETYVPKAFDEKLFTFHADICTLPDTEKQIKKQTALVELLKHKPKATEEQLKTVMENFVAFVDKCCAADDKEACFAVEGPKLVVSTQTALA
Procedure: as §6
For another assay, the target named is T7, TGF-α (control in ELISA) (UniProt P01135 40-89).
T7 construct: also called transforming growth factor-α
Described as above.

Read-outs that look alike come from different tables or passages of the source.

Procedure for TGF-α (control in ELISA): as §6

B1: Ab#14 (Fab, V domains shown)
VH: EVQLLESGGGLVQPGGSLRLSCAASGFTFSAYGMGWVRQAPGKGLEWVSYISPSGGHTKYADSVKGRFTISRDNSKNTLYLQMNSLRAEDTAVYYCAKVLETGLLVDAFDIWGQGTMVTVSS
VL: QYELTQPPSVSVYPGQTASITCSGDQLGSKFVSWYQQRPGQSPVLVMYKDKRRPSEIPERFSGSNSGNTATLTISGTQAIDEADYYCQAWDSSTYVFGTGTKVTVL
notes: also called Fab form of Ab #14; MM 121-14
Regarding B1, in assay [1], the binding result is “binds”.

B2: biotinylated heregulin EGF (ligand, UniProt Q02297-6 177-241, looked up)
chain: SHLVKCAEKEKTFCVNGGECFMVKDLSNPSRYLCKCPNEFTGDRCQNYVMASFYKHLGIEFMEAE
modifications: also: biotinylated, site not given here
notes: domain: heregulin EGF
Turning to B2, the binding result in assay [2] is given as “binds”.

B3: betacellulin (BTC) (ligand, UniProt P35070 32-111, looked up)
chain: DGNSTRSPETNGLLCGDPEENCAATTTQSKRKGHFSRCPKQYKHYCIKGRCRFVVAEQTPSCVCDEGYIGARCERVDLFY
modifications: biotinylated (Example 7)
notes: also called biotinylated BTC
On to B3, for which the results for the binding result in assay [3] and in [4] were “no binding (tested: 500 nM)” and “binds”, respectively.

B4: Antibody #3 (Ab #3), human anti-ErbB3 antibody (antibody, V domains shown)
VH: EVQLLESGGGLVQPGGSLRLSCAASGFTFSAYNMRWVRQAPGKGLEWVSVIYPSGGATRYADSVKGRFTISRDNSKNTLYLQMNSLRAEDTAVYYCARGYYYYGMDVWGQGTLVTVSS
VL: QSVLTQPPSASGTPGQRVTISCSGSDSNIGRNYIYWYQQFPGTAPKLLIYRNNQRPSGVPDRISGSKSGTSASLAISGLRSEDEAEYHCGTWDDSLSGPVFGGGTKLTVL
Take B4: the values for the equilibrium dissociation constant (Kd) in [5] and in assay [6] were approximately 8 nM and approximately 1.3 nM, respectively. For the same molecule, the concentration giving a half-maximal response (EC50 (read off the curve)) in [7] is approximately 8 nM.

B5: Antibody #6 (Ab #6), human anti-ErbB3 antibody (antibody, V domains shown)
VH: EVQLLESGGGLVQPGGSLRLSCAASGFTFSHYVMAWVRQAPGKGLEWVSSISSSGGWTLYADSVKGRFTISRDNSKNTLYLQMNSLRAEDTAVYYCTRGLKMATIFDYWGQGTLVTVSS
VL: QSALTQPASVSGSPGQSITISCTGTSSDVGSYNVVSWYQQHPGKAPKLIIYEVSQRPSGVSNRFSGSKSGNTASLTISGLQTEDEADYYCCSYAGSSIFVIFGGGTKVTVL
notes: also called antibody number 6; MM121
In the case of B5, the “IC50 of inhibition of BTC-induced ErbB3 phosphorylation (ELISA, ADRr cells)” value in [8] stood at 5.9 nM. In assay [8], the “IC50 of inhibition of HRG1-beta-induced ErbB3 phosphorylation (ELISA, ADRr cells)” value came to 2.4 nM. Moreover, in assay [9], the koff was determined as 0.00011 s⁻¹. In assay [9], this molecule registered a kon of 143000 M⁻¹ s⁻¹. The Kd was 0.769 nM in assay [10], approximately 4 nM in assay [11] and approximately 4 nM in [6]. In addition, in assay [12], the “EC50 (read off the curve)” value is 1 to 2 nM. Moreover, the binding result in [13], in assay [14] and in assay [15] was “no binding” in each case.

B6: Ab #6, IgG2 isotype (antibody, V domains shown)
VH: EVQLLESGGGLVQPGGSLRLSCAASGFTFSHYVMAWVRQAPGKGLEWVSSISSSGGWTLYADSVKGRFTISRDNSKNTLYLQMNSLRAEDTAVYYCTRGLKMATIFDYWGQGTLVTVSS
VL: QSALTQPASVSGSPGQSITISCTGTSSDVGSYNVVSWYQQHPGKAPKLIIYEVSQRPSGVSNRFSGSKSGNTASLTISGLQTEDEADYYCCSYAGSSIFVIFGGGTKVTVL
notes: Human IgG2; also called IgG2 isotype of Ab #6
For the molecule B6, the binding result (in [16]; in [17]; with TGF-α (control in ELISA)) was “no binding (tested: 1000 nM)” throughout.

As a reminder, the Kd is a measure of binding affinity in units of concentration. One may read the EC50 (read off the curve) as the concentration at which the effect is half-maximal. The low end stands for an effect from little substance, the high end for a need for much substance. As a reminder, the koff is the first-order rate constant of dissociation. As a reminder, the kon is a measure of how fast the partners come together.
